Measurements published in patent US20150197564A1 (Regeneron, published 2015).

T1: bovine LPL (bovine, UniProt P11151 29-478, limits assumed)
T1 sequence (looked up): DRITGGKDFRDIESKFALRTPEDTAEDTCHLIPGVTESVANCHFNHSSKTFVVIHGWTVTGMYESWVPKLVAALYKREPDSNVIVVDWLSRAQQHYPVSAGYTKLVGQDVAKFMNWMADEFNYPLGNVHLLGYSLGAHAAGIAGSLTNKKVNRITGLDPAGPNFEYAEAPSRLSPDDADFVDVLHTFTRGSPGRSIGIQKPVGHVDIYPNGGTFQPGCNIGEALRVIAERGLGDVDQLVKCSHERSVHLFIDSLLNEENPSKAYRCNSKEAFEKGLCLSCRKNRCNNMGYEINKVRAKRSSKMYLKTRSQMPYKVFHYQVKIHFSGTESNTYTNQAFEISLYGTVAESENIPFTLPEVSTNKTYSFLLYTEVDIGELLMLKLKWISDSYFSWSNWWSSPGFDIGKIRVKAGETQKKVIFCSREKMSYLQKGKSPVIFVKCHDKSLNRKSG

T2: hANGPTL3(17-460)-His (human, UniProt Q9Y5C1 17-460)
T2 construct: Bought protein (R&D Systems); also called full-length mature human ANGPTL3 with a C-terminal decahistidine tag; Human ANGPTL3 (17-460)-His
T2 sequence: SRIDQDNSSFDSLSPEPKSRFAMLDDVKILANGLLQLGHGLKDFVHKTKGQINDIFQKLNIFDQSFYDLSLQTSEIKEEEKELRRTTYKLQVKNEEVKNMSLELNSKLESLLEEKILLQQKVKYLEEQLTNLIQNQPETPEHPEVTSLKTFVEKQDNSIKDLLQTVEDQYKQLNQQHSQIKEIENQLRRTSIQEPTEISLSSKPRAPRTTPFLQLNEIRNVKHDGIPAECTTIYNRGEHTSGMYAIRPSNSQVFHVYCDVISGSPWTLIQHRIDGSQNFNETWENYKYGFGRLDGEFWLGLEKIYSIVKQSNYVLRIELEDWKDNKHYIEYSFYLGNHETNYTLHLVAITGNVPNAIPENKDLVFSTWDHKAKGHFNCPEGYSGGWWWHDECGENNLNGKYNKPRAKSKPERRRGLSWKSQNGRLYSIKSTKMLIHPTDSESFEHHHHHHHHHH

T3: mANGPTL3(17-455)-His (Mus musculus, UniProt Q9R182 17-455)
T3 construct: Bought protein (R&D Systems); also called full-length mature ANGPTL3 from Mus musculus with a C-terminal decahistidine tag
T3 sequence: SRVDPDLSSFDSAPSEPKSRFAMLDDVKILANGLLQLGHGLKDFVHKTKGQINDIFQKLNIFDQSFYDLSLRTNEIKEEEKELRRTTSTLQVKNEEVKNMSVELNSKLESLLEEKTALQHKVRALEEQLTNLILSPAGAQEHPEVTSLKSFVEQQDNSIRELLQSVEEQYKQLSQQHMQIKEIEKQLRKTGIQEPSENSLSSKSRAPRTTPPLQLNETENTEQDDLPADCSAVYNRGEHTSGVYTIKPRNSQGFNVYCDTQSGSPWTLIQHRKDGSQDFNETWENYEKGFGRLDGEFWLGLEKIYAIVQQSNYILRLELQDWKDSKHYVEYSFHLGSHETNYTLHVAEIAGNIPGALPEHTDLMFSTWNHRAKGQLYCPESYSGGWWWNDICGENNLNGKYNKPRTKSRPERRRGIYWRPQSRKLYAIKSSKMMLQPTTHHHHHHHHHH

B1: hANGPTL3(17-169)-mFc (Fc fusion)
chain: SRIDQDNSSFDSLSPEPKSRFAMLDDVKILANGLLQLGHGLKDFVHKTKGQINDIFQKLNIFDQSFYDLSLQTSEIKEEEKELRRTTYKLQVKNEEVKNMSLELNSKLESLLEEKILLQQKVKYLEEQLTNLIQNQPETPEHPEVTSLKTFVEEPRGPTIKPCPPCKCPAPNLLGGPSVFIFPPKIKDVLMISLSPIVTCVVVDVSEDDPDVQISWFVNNVEVHTAQTQTHREDYNSTLRVVSALPIQHQDWMSGKEFKCKVNNKDLPAPIERTISKPKGSVRAPQVYVLPPPEEEMTKKQVTLTCMVTDFMPEDIYVEWTNNGKTELNYKNTEPVLDSDGSYFMYSKLRVEKKNWVERNSYSCSVVHEGLHNHHTTKSFSRTPGK

How the values were obtained:
[1] = target: T1, bovine LPL; assay: cell-based or functional assay
[2] = target: T1, bovine LPL; assay: cell-based or functional assay; remark: listed apart in the source
[3] = target: B1; assay: SPR Biacore, antigen captured, 25C, pH 7.4, HBS-EP
Method: (§1) All kinetic binding experiments were performed at 25° C. or 37° C. on a BIACORE™ T200 label-free molecular interaction instrument (GE Healthcare) using a CM5 sensor chip. Briefly, an antigen capture surface was generated by covalently coupling either an anti-mouse IgG-specific antibody (anti-mFc; GE Healthcare; catalog #BR-1008-38) or an anti-pentahistidine-specific antibody (Qiagen; catalog #34660) to the surface of a CM5 sensor chip using a standard amine coupling method.

[4] = target: T2, hANGPTL3(17-460)-His; assay: SPR Biacore, antigen captured, 25C, pH 7.4, HBS-EP
Method: as §1

[5] = target: T2, hANGPTL3(17-460)-His; assay: Biacore cross-competition; second antibody after pre-loading with competitor H4H1279P
Method: (§2) Cross competition experiments were performed at 25° C. on a Biacore essentially as described in Example 3 above. […] The results are shown in Table 8 with binding response for the first antibody (mAb1), followed by binding response of the second antibody (mAb2) on the ANGPTL3 surface pre-loaded with the first antibody. Numbers in bold indicate that the antibody pairs are able to bind to hANGPTL3 simultaneously. Numbers in italics indicate that that the antibody pairs are able to bind to hANGPTL3 simultaneously when added sequentially in one direction but not the other. Brackets indicate self-self competition.

[6] = target: T2, hANGPTL3(17-460)-His; assay: Biacore cross-competition; second antibody after pre-loading with competitor H4H1292P
Method: as §2

[7] = target: T2, hANGPTL3(17-460)-His; assay: Biacore cross-competition; second antibody after pre-loading with Negative Control
Method: as §2

[8] = target: T3, mANGPTL3(17-455)-His; assay: SPR Biacore, antigen captured, 37C, pH 7.4, HBS-EP
Method: as §1

[9] = target: T2, hANGPTL3(17-460)-His; assay: SPR Biacore, antigen captured, 37C, pH 7.4, HBS-EP
Method: as §1

[10] = target: T2, hANGPTL3(17-460)-His; assay: Biacore cross-competition, 25C; first antibody at 25 µg/ml on captured antigen
Method: as §2

[11] = target: T2, hANGPTL3(17-460)-His; assay: Biacore cross-competition; second antibody after pre-loading with competitor H1M896N
Method: as §2

[12] = target: T2, hANGPTL3(17-460)-His; assay: Biacore cross-competition; second antibody after pre-loading with competitor H4H1250P
Method: as §2

Kd [3] [nM]	koff [3] [s⁻¹]	kon [3] [M⁻¹ s⁻¹]	t1/2 [3] [h]	Kd [4] [nM]	koff [4] [s⁻¹]	kon [4] [M⁻¹ s⁻¹]	t1/2 [4] [min]	mAb2 binding response (RU) [5] [RU]	mAb2 binding response (RU) [6] [RU]	mAb2 binding response (RU) [7] [RU]	Kd [8] [nM]	koff [8] [s⁻¹]	kon [8] [M⁻¹ s⁻¹]	t1/2 [8] [min]	Kd [9] [nM]	koff [9] [s⁻¹]	kon [9] [M⁻¹ s⁻¹]	t1/2 [9] [min]	mAb1 binding response (RU) [10] [RU]	Binder	other results
–	–	–	–	–	–	–	–	–	–	–	–	–	–	–	–	–	–	–	–	hANGPTL4(26-148)-mFc (Fc fusion) GPVQSKSPRFASWDEMNVLAHGLLQLGQGLREHAERTRSQLSALERRLSACGSACQGTEGSTDLPLAPESRVDPEVLHSLQTQLKAQNSRIQQLFHKVAQQQRHLEKQHLRIQHLQSQFGLLDEPRGPTIKPCPPCKCPAPNLLGGPSVFIFPPKIKDVLMISLSPIVTCVVVDVSEDDPDVQISWFVNNVEVHTAQTQTHREDYNSTLRVVSALPIQHQDWMSGKEFKCKVNNKDLPAPIERTISKPKGSVRAPQVYVLPPPEEEMTKKQVTLTCMVTDFMPEDIYVEWTNNGKTELNYKNTEPVLDSDGSYFMYSKLRVEKKNWVERNSYSCSVVHEGLHNHHTTKSFSRTPGK	EC50 (nM), inhibition of LPL activity [1]: 0.2 nM
–	–	–	–	–	–	–	–	–	–	–	–	–	–	–	–	–	–	–	–	B1	IC50 for blocking LPL [2]: 47 nM; EC50 (nM), inhibition of LPL activity [1]: 16 nM
0.519	0.000651	1.25e+06	0.3	0.726	0.000657	904000	18	213	220	187	0.486	0.00155	3.18e+06	7	0.324	0.00113	3.5e+06	10	210	H4H1250P (antibody, IgG4, V domains shown) VH: QVQLVESGGGVVQPGRSLRLSCAASGFTFSSYGMHWVRQAPGKGLEWVAVISNDGSNKYYVDSVKGRFTMGRDNSKNTLYLQMNSLRVEDTAVYYCAKGAGTLYYYYYGMDVWGQGTTVTVSS VL: DIQMTQSPSTLSASVGNRVTITCRASQSISSWLAWYQQKPGKAPKFLIYKASSLESGVPSRFSGSGSGTEFTLTITSLQPDDFATYYCQQYNIYSWTFGQGTKVEIK	mAb2 binding response (RU) [11]: -4 RU
0.00841	5.53e-06	658000	34.8	0.394	0.000114	288000	102	–	-3	47	0.167	0.000359	2.15e+06	32	0.381	0.00181	4.74e+06	6	45	H4H1279P (antibody, IgG4, V domains shown) VH: QVQLVESGGGLVKPGGSLRLSCAASGFTFSDYYMSWIRQAPGKGLEWVSYIGSSGVNMYYADSVKGRFTISRDNAKNSLYLEMNSLRAEDTAVYYCARDSSQLGFDYWGQGTLVTVSS VL: DIQMTQSPSSLSASVGDRVTITCRTSQNIINFLNWYQQKPGKAPKLLIYTTSTLQSGVPSRFSGSGSGTDFTLSINSLQPEDFATYFCQQTYSNPLTFGGGTKLEIKR	mAb2 binding response (RU) [12]: 9 RU; mAb2 binding response (RU) [11]: 47 RU
0.257	0.000177	686000	1.08	0.727	0.000248	341000	47	-1	–	48	0.38	0.00149	3.92e+06	8	1.02	0.00194	1.89e+06	6	48	H4H1292P (antibody, IgG4, V domains shown) VH: QVQLVESGGGLVKPGGSLRLSCAASGFTFSDYYMSWIRQAPGKGLEWVSYISSSGSTIYYADSVKGRFTISRDNAKNSLYLQMNSLRAEDTAVYYCARDSSQLGFDYWGQGTLVTVSS VL: DIQMTQSPSSLSASVGDRVTITCRASQSIISFLNWYQQKPGKAPKLLIYTASSLQSGVPSRFSGSGSGTDFTLTISSLQPEDFATYYCQQTYSNPLTFGGGTKVEIKR	mAb2 binding response (RU) [12]: 8 RU; mAb2 binding response (RU) [11]: 50 RU
–	–	–	–	–	–	–	–	186	182	149	0.682	0.00247	3.62e+06	5	0.158	0.00053	3.36e+06	22	171	H1M896N (antibody, V domains shown) VH: EVQLLESGGGLVQPGGSLRLSCAASGFTFSTYAMSWVRQAPGKGLEGVSGISGTGYRTYYADSVKGRFTISRDNSKNSLYLQMNSLRAEDTAVYYCAKDRGLLWFGELTYWGQGTLVTVSS VL: DIQMTQSPSTLSASVGDRVTITCRASQSINNWLAWYQQKPGKAPNLLIYKASSLESGVPSRFSGSGSGTEFTLTISSLQPDDFATYYCQQYNDYWTFGQGTKVEIK	mAb2 binding response (RU) [12]: -4 RU
